Experimental data: FireProtDB (doi:10.1074/jbc.273.32.19982)

B1: DNA-binding protein HU 1 wild type, P08821 (protein)
chain: MNKTELINAVAEASELSKKDATKAVDSVFDTILDALKNGDKIQLIGFGNFEVRERSARKGRNPQTGEEIEIPASKVPAFKPGKALKDAVAGK
B2: DNA-binding protein HU wild type, P0A3H0 (protein)
chain: MNKTELINAVAETSGLSKKDATKAVDAVFDSITEALRKGDKVQLIGFGNFEVRERAARKGRNPQTGEEMEIPASKVPAFKPGKALKDAVK

Conditions: pH 7, Thermal, CD, Sodium phosphate 5 mM, NaCl 0.2 M, reversible: yes, whole UniProt chain shown

Protein | Tm (Bacillus subtilis (strain 168)) [°C] | Tm (Geobacillus stearothermophilus) [°C] | unfolding enthalpy (van 't Hoff) (Geobacillus stearothermophilus) [kcal/mol]
B1 | 48.6 |  | 
B2 |  | 63.9 | 72.8
